Experimental findings from the supplement of paper PMC12636428 are described below.

For the data set, the system named is Saccharomyces cerevisiae. Description: transcriptional activation domain activity (GFP:mCherry ratio, weighted mean of sorted bins, harmonized to initial dataset scale) (arbitrary fluorescence ratio units); higher = stronger transcriptional activation. Conditions: beta-estradiol 1 µM; induction time 4 h. The procedure, abridged:
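The activation activity of each tile is the read-weighted mean of bin median fluorescence, averaged across its barcodes and mapped linearly onto the scale of the initial dataset. Tiles were fused to an estradiol-inducible synthetic transcription factor, barcoded, and integrated at URA3 in yeast diploids carrying a GFP reporter. Induction used 1 uM beta-estradiol in SC for 4 hours at 30 °C, after which cells were sorted into 8 GFP:mCherry bins, and any tile with fewer than 50 reads was dropped.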

As for “FGNPPLIWFFWALFSPLFLFFFFFPIFFLSFPFFSFSFLFSFFVLLGVLKAYL”, the “transcriptional activation domain activity” value was found to be 22100.

For “GEGEEDDVNGNKKRASDRSSSPKSKRSRKDEEEKEKEKKPTVKKPRQTKPKTT”, the “transcriptional activation domain activity” value came out at 31300.

“SKPSARKASSRSVASKEQAAVAAKKVASVEEQKKKRGRPRKLPLSDATNEVAS”: the “transcriptional activation domain activity” value turned out to be 42100.

Regarding “RRSHRSHHSSRSRDEEGKERRSSRGEDEKRAHRSRDEDEGRRRRRSHRDRDEE”, the “transcriptional activation domain activity” value worked out at 18900.

As to “AFSFALFDFDTLAGTFPFDSLGYSDDISTLTDPLIPMNYDPTPFSWTPRTTLA”, the “transcriptional activation domain activity” value was 54300.

“DSKDKREKFRSRMVVLKSRLLFGVCDPYGVLEEGEVYVRVSVPRMGASTLKNT”: the “transcriptional activation domain activity” value amounted to 67500.

Take “AREIISAGWAKVHDSGSRRNANSQPEEEEEGGWKAKLRELQEEAKAAARGVWG”: the “transcriptional activation domain activity” value was determined as 35300.

“DKKEAKPVNGESSKDTKPSGKEKEKELKDNAKPKEAKKGEGNKGGLAKAAAAP”: the “transcriptional activation domain activity” value was determined as 25800.

Consider “MGVLFLLCPCLCVVPLFCIAMQWSIGLYLCLDQRFPVLYTYFFILFSSILFCS”, for which the “transcriptional activation domain activity” value came to 48300.

On to “MNKLFFKLRICVLIKIMLLQFVIIATIYNCNYFIIIVMYICLLLLLPFKLVYD”, for which the “transcriptional activation domain activity” value is 52100.

“FAGAFKHFQRLGPVSQWDLLAKLPLIVFWILFTCCSLHFYLLFLFLFFIRWVS”: the “transcriptional activation domain activity” value turned out to be 55200.

For the sequence “DSGKQGFLFLVCLVFFVFFWGFACDLWLGLLLLFFFFPFLSFPLFSLPHYHGH”, the “transcriptional activation domain activity” value came out at 43900.

For “VVKGDEVQIVRGSKKGAEGRVTQVYRKKWVIHVDRVERQKAKEQTVPVPVAAS”, the “transcriptional activation domain activity” value came out at 70900.

On to “VTCFGILCFLLSALYLCIGFDPFINQLLYCGVLWLFQGIYFVLFGMKVALHFQ”, for which the “transcriptional activation domain activity” value was found to be 36200.

Turning to “RPPPPSAAAEPAADAPATEEAKPGHEKKEKTEKKPKEKAKKAEKKEEVCAAAT”, the “transcriptional activation domain activity” value is less than 6570.

As to “FVLLLFTCVHVFVVYLVVIAFFTVNICLLWTIALSFMLWYIFFCNLSCSTWPL”, the “transcriptional activation domain activity” value stood at 54300.

For the sequence “ISTAYFSNECGLVDRLITLAFLALKSKTDMSMVAYHSYCAIIEASLHSRGIWN”, the “transcriptional activation domain activity” value was 57300.

Consider “SQNSNDTSSKGIVDPFVEQNNDITTALLNNELFQGPSLSDEVTDWFGASEDIG”, for which the “transcriptional activation domain activity” value turned out to be 91000.

For “VHVNDMVGFKFMSDKHEIFSKVLLTDVLKGTLAHQWLGYNVLFSNGSEWHFFR”, the “transcriptional activation domain activity” value came out at 59100.

For the sequence “RLCPRLGLVELFFKNSAELSKVLKALGAAAATTLCTVVFPGYSHRLSFLQWYP”, the “transcriptional activation domain activity” value came out at 62400.

Consider “RSSSGKDRDRERDGGRDRNGKSSSSSRRREKERDEDSGDERRKSSSSSRRRRD”, for which the “transcriptional activation domain activity” value was found to be 44400.

Consider “REGGRRGRGRARSRRQGGKREERGRTRKGRKGGENRPKREGGQGGGERARRRE”, for which the “transcriptional activation domain activity” value was 41300.

Turning to “MSLYICNLVFSFFFFLFSFFLFLTLIFSSTRADCLWLLQERWYFVLLWNTLPF”, the “transcriptional activation domain activity” value was 45800.

Regarding “NEEKGGKDAASRESAVHVYGTLGSRIGRGPRSPSVLSRSFHDIHDCLACVLVV”, the “transcriptional activation domain activity” value is 56900.

For “SVSRLHAKIEYEEENERFVLVVLGRNGAWVDGIWSGSGSRVPLGPRSQIQIAT”, the “transcriptional activation domain activity” value was 31600.

On to “MVLRYRLSRSFPTLFIHVQLVLQSLRMGQVSLCMVVQIVWEYIYFWLLGNIAW”, for which the “transcriptional activation domain activity” value was 65600.

On to “PELVPLDLKNPELDSSFDLNMNLDLNLNLDSNFNIALNRSDSSGSTMNLDYKL”, for which the “transcriptional activation domain activity” value was found to be 101000.

Take “VVALVADPEFQRELAYVLCGQSILVRWPAKILNGLWLYCHLLQQAILPWFIFY”: the “transcriptional activation domain activity” value stood at 52600.

As for “MFGYDSSRSSCSFLLPRESSIRLMVYFLYLLRVFYLLFFVFHLFLLPSSLFFF”, the “transcriptional activation domain activity” value was found to be 41200.

Take “TRPYEMALKFVNVTDTNELLRMRQFACDICDYAPHLLDNDNISLLIVLLILTR”: the “transcriptional activation domain activity” value is 45000.

“MSSPTSSLFFVSPPVGCYRYLLFFFFSSFWLLFVFLRSVPFGPTLLLFFFYFN”: the “transcriptional activation domain activity” value worked out at 42400.

Regarding “MTRMLPLSFELFKFIVNLCLALVFTSWLFSWSKMLLILGLICVCRDFLSLVIV”, the “transcriptional activation domain activity” value is 31700.

“AAKRKTRADEHEEDEEEEHREATVVRRARGRPRKVEAPEPEAPVRATRGRATK”: the “transcriptional activation domain activity” value was determined as 17000.

For “GRTNVALPIYLFVFGELIDAYENRHIHHMDRIKMVLRMWFFKSIWKSFLQGAG”, the “transcriptional activation domain activity” value was 56300.

On to “FLLDIFLLLVPSFPFSYTPFLVTSLFLVLCDIDVFLRFIYVHIYLVTLICTFM”, for which the “transcriptional activation domain activity” value came to 30400.

Consider “MLNLHQSCLLLCSLLIITGLGLASTIFIPVNPFYQLLLMENSAFPWIHFVIYC”, for which the “transcriptional activation domain activity” value was 38500.

Regarding “MHRELTGYFFSFFFFLFFFSFFIHISRLAVYIWDWVTSLHFFIFVILNILGSS”, the “transcriptional activation domain activity” value was determined as 66700.

For “MFFLLVLAAVISGYKAVLKHFLVVISLFLHMIYLVPPLCLWKPILVASILSSP”, the “transcriptional activation domain activity” value worked out at 44700.

With “PSPLPKHQIIREASNVRNITKMKKYDSTFYLHRDHVNYEEYGVDSLLFSYPED”, the “transcriptional activation domain activity” value was 58100.

As for “NQLAEAHALALLHLEQRLNIAIELPIQKFILSHLPWLMPVLAKIYLSHIIVGV”, the “transcriptional activation domain activity” value amounted to 57100.

In the case of “AWVLSLFLSFFGIGLVLGSGIWDLGFGLVFLFLVFSFFWGWFWVVLCVVYVDR”, the “transcriptional activation domain activity” value came to 33800.

Take “GPEYEPGRPSEQEVSLTRMLDKVLRRSDAIDKESLCIIAGQRVWHIRLTIHCL”: the “transcriptional activation domain activity” value came to 87900.

In the case of “PQCYNNWKSLLLLQRYLYFVLPPFPVHFLPIFKILCTYIQLLIWFATISLASL”, the “transcriptional activation domain activity” value was 40700.

For the sequence “LGLTNLQLGDEMIGLGAVILIYVIARLILILLPLVALRSLPSGVFVDVNWSRY”, the “transcriptional activation domain activity” value was 57800.

In the case of “MRDGKQGMREKKRKEEGESKSEKKNGKGGRMGKRGGKGKGRKREEQRRVGIEK”, the “transcriptional activation domain activity” value is 28100.

For the sequence “YMYSAFMRFFILGWPSYLVVVASIAVVLLLHILYFLVQLQLKNIFLLLLHCFA”, the “transcriptional activation domain activity” value amounted to 60400.

Consider “DAEYMCQYHGSLIGKHFKSLAQVMPFVIYGLVHEDVLHAWNIIGTLLVLLWHT”, for which the “transcriptional activation domain activity” value turned out to be 33500.

With “MALEFLMDDIHLNKFLLLGYGVISKFLIVCHRYSKVVGETYYVIHTGIFYLLG”, the “transcriptional activation domain activity” value is 56200.

On to “MLVALCTYMIFNYYFFNFLLLFIFLYFTSYIVLSSSYSLVFISLIINSDFLFL”, for which the “transcriptional activation domain activity” value amounted to 57500.

As for “PFCMVNAKTVTLRMIESIHKLRRVLVRSEDEIIRLISPVSAKVLCTCLPLFEM”, the “transcriptional activation domain activity” value worked out at 60400.

Take “MLYIIMKINLFMKVIMLFLVKLIVHYLMILLSLVLLLILLSSFIYICYILVLF”: the “transcriptional activation domain activity” value was 37800.

For “WLHKLPRATWAYPLYGIYYLLTNPALLSPLLSRIIPLLILSIFVLTFTFTFLY”, the “transcriptional activation domain activity” value was found to be 43800.

Turning to “YLFYRLGLNIREIQLRSRGLILLQSLSVLGWSLLASSFSGLYFIGYPCFIHWW”, the “transcriptional activation domain activity” value was 42700.

Consider “KAAEKPAPAVSPSAPAAKAVHHNNNSNAKKQEQQQQQRAKSPAAASASAPAPA”, for which the “transcriptional activation domain activity” value amounted to 16600.

Turning to “MITVLSVIPLLLLLLLLLLLLLLLLLLLLISPLFRLGSLFVFCPYILFRLWWV”, the “transcriptional activation domain activity” value is 42000.

Turning to “IIFLIMRAMVGLQVLNENVIEKILMYLKLQWVAVFIYWQVLWLVKFSLLIFFK”, the “transcriptional activation domain activity” value amounted to 75400.

With “MVLLCAYERGLGLDIGVSGFVSFFSFLTLFFFFPIYLFFSLLYFLCVCLLCCA”, the “transcriptional activation domain activity” value was 49700.

“MVQCASTECSNEGVSQCGRCKQRFYCGAECQQKDWPAHKKNCKRPNAPPPQMS”: the “transcriptional activation domain activity” value came to 17500.

Consider “PAPAPAPAPRKGRSKKPVASPSASPVLAPAPAPAIALRKGRSKKPVASPSASP”, for which the “transcriptional activation domain activity” value was 36100.

Consider “GFTFYFSLHFHIFHIFHYLWEPRATILFFLTSLLFFFFTPIFTFMHCIIFIGF”, for which the “transcriptional activation domain activity” value was determined as 78900.

“MGRLGTLGLSQEQLDNLRYYKYAAVDRSQLTKYVLRHYWNWAITLFPTWIAPN”: the “transcriptional activation domain activity” value turned out to be 32100.

Consider “MGGGGGACSCSIAYIHGFLSSLFFLLFATTFFHYSFCLLLLWMLIFFWLFAFV”, for which the “transcriptional activation domain activity” value was less than 6570.

As for “GREGKKHRDRDGSSRGSSSKEKRRERSDGKKHREKSEGGKHREGRSREGRRED”, the “transcriptional activation domain activity” value is 44700.

Regarding “MRTHVLSMHSALLLLHCLRAVWLAPVSRPRQCLTSPAFCSSTRLAIILGGVRH”, the “transcriptional activation domain activity” value came to 77900.

For the sequence “PNIHSLHSLYTFRFLHIHSFHNLFFLPFFYFLYSLCFLHLPCFLSFLRFLHLL”, the “transcriptional activation domain activity” value stood at 63900.

Turning to “LCMELVLHYIYVVAISNSSPDWSAYTPFQLSMLGYFNLHHIWLKLLIPWRFFR”, the “transcriptional activation domain activity” value was 63800.

Consider “VLLILGLGNPLCSRPVKLFEWMIAALVFAVLICMTMIIVKVNVVWSQAFNGFV”, for which the “transcriptional activation domain activity” value was 45600.

In the case of “MGVFILFAFLFFLMFVLLHFFLLLSFFLLSSLMGVYFFPHSMITYMFSFGLRS”, the “transcriptional activation domain activity” value amounted to 44100.

Take “SLISFRLLGEVATGIKYLVCYDMPNMSRIEVELAKRLYCLILCGLCTWSIYGR”: the “transcriptional activation domain activity” value turned out to be 79500.

Take “MYNTALITIYLLLLLRRIFFTWSYLAYSFNFIATRVFARITMLMLVELFRQHD”: the “transcriptional activation domain activity” value was determined as 67400.

In the case of “STFGKYVHCRLLEGNTGMKIPQAAVIALIFRFLEKLVNTRLAVISRRWAMVTL”, the “transcriptional activation domain activity” value was 67000.

As for “SPSPSTTATPPASPSPPSRTKSTPRASSRSACAPSVTTPAGRPRSCARSGPRC”, the “transcriptional activation domain activity” value amounted to 38000.

With “IQFSLIPLSILSFCINHFGLGCDVWTVSFAHITDVLHITYWVEILYTLCLYFV”, the “transcriptional activation domain activity” value is 40700.

Take “ITWSQLRRRFTPGFETFLDIGIERGWYSCNNTLQVMVFRWVFIPWLQQELSAY”: the “transcriptional activation domain activity” value is 30600.
